Assay results published in patent US20170298096A1 (CANIMGUIDE THERAPEUTICS, published 2017).
No end group written: not given here.

Target: T1, His-tagged P3028 (human, also: His-tag, terminus and sequence not given here)
T1 construct: in solution at 0.5 ug/mL over the peptide cards; found with anti-His-tag antibody and rabbit anti-mouse peroxidase (rampo); also called PGE73; not shown: His-tag
T1 peptide: VFDEFKPLVEEPQNLIK
Experiment: PEPSCAN chip ELISA, His-P3028 in solution;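 further: score is the raw OD at 405 nm from peroxidase colour with ABTS, imaged by CCD camera before and after staining, with wells showing air bubbles set to zero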

B1: SEQ ID NO 373 (peptide)
peptide: KKLDTFFVKLSLTTER
RAMPO Score: 494 rampo score

B2: SEQ ID NO 423 (peptide)
peptide: KKLMTFFVKLSLFTER
RAMPO Score: 384 rampo score

B3: SEQ ID NO 386 (peptide)
peptide: KKLDTFFVKLSLFWER
RAMPO Score: 374 rampo score

B4: SEQ ID NO 431 (peptide)
peptide: KKLDTFFVKLSGFTER
RAMPO Score: 370 rampo score

B5: SEQ ID NO 434 (peptide)
peptide: KKLDTYFVKLSLFTER
RAMPO Score: 364 rampo score

B6: SEQ ID NO 435 (peptide)
peptide: KKLPTFFVKLSLFTER
RAMPO Score: 364 rampo score

B7: SEQ ID NO 411 (peptide)
peptide: KKLDTLFVKLSLFTER
RAMPO Score: 408 rampo score

B8: SEQ ID NO 402 (peptide)
peptide: KNLDTFFVKLSLFTER
RAMPO Score: 432 rampo score

B9: SEQ ID NO 432 (peptide)
peptide: KKLDTFRVKLSLFTER
RAMPO Score: 369 rampo score

B10: SEQ ID NO 437 (peptide)
peptide: KKLDTFPVKLSLFTER
RAMPO Score: 356 rampo score

B11: SEQ ID NO 401 (peptide)
peptide: KKLDTSFVKLSLFTER
RAMPO Score: 432 rampo score

B12: SEQ ID NO 417 (peptide)
peptide: KMLDTFFVKLSLFTER
RAMPO Score: 400 rampo score

B13: SEQ ID NO 420 (peptide)
peptide: KKLDHFFVKLSLFTER
RAMPO Score: 391 rampo score

B14: SEQ ID NO 397 (peptide)
peptide: KKLDTFIVKLSLFTER
RAMPO Score: 446 rampo score

B15: SEQ ID NO 418 (peptide)
peptide: KHLDTFFVKLSLFTER
RAMPO Score: 394 rampo score

B16: SEQ ID NO 390 (peptide)
peptide: KKLDTFFVKLSLFTEN
RAMPO Score: 311 rampo score

B17: SEQ ID NO 382 (peptide)
peptide: KKLDTFFVKLSLFNER
RAMPO Score: 599 rampo score

B18: SEQ ID NO 419 (peptide)
peptide: KKLDTFFVKLVLFTER
RAMPO Score: 392 rampo score

B19: SEQ ID NO 375 (peptide)
peptide: KKLDTFFVKLSLWTER
RAMPO Score: 430 rampo score

B20: SEQ ID NO 425 (peptide)
peptide: KKLDTFWVKLSLFTER
RAMPO Score: 380 rampo score

B21: SEQ ID NO 410 (peptide)
peptide: KKLDTQFVKLSLFTER
RAMPO Score: 410 rampo score

B22: SEQ ID NO 415 (peptide)
peptide: KKLDTFFVKLYLFTER
RAMPO Score: 402 rampo score

B23: SEQ ID NO 379 (peptide)
peptide: KKLDTFFVKLSLFIER
RAMPO Score: 375 rampo score

B24: SEQ ID NO 378 (peptide)
peptide: KKLDTFFVKLSLFHER
RAMPO Score: 463 rampo score

B25: SEQ ID NO 412 (peptide)
peptide: KGLDTFFVKLSLFTER
RAMPO Score: 405 rampo score

B26: SEQ ID NO 385 (peptide)
peptide: KKLDTFFVKLSLFVER
RAMPO Score: 380 rampo score

B27: SEQ ID NO 404 (peptide)
peptide: KKLDTFAVKLSLFTER
RAMPO Score: 426 rampo score

B28: SEQ ID NO 377 (peptide)
peptide: KKLDTFFVKLSLFGER
RAMPO Score: 343 rampo score

B29: SEQ ID NO 392 (peptide)
peptide: KKLDTFFVKLSLFTET
RAMPO Score: 292 rampo score

B30: SEQ ID NO 436 (peptide)
peptide: KKPDTFFVKLSLFTER
RAMPO Score: 361 rampo score

B31: SEQ ID NO 380 (peptide)
peptide: KKLDTFFVKLSLFLER
RAMPO Score: 360 rampo score

B32: SEQ ID NO 407 (peptide)
peptide: KRLDTFFVKLSLFTER
RAMPO Score: 417 rampo score

B33: SEQ ID NO 388 (peptide)
peptide: KKLDTFFVKLSLFTEF
RAMPO Score: 297 rampo score

B34: SEQ ID NO 429 (peptide)
peptide: KKLDVFFVKLSLFTER
RAMPO Score: 374 rampo score

B35: SEQ ID NO 426 (peptide)
peptide: KKLFTFFVKLSLFTER
RAMPO Score: 380 rampo score

B36: SEQ ID NO 416 (peptide)
peptide: KKLDTFFIKLSLFTER
RAMPO Score: 401 rampo score

B37: SEQ ID NO 421 (peptide)
peptide: KFLDTFFVKLSLFTER
RAMPO Score: 390 rampo score

B38: SEQ ID NO 424 (peptide)
peptide: KKLDTFEVKLSLFTER
RAMPO Score: 381 rampo score

B39: SEQ ID NO 409 (peptide)
peptide: KKLDTFCVKLSLFTER
RAMPO Score: 411 rampo score

B40: SEQ ID NO 393 (peptide)
peptide: KKLDTFFVKLSLFTEY
RAMPO Score: 311 rampo score

B41: SEQ ID NO 374 (peptide)
peptide: KKLDTFFVKLSLVTER
RAMPO Score: 446 rampo score

B42: SEQ ID NO 433 (peptide)
peptide: KKLDTFHVKLSLFTER
RAMPO Score: 364 rampo score

B43: SEQ ID NO 387 (peptide)
peptide: KKLDTFFVKLSLFTDR
RAMPO Score: 404 rampo score

B44: SEQ ID NO 384 (peptide)
peptide: KKLDTFFVKLSLFSER
RAMPO Score: 369 rampo score

B45: SEQ ID NO 383 (peptide)
peptide: KKLDTFFVKLSLFPER
RAMPO Score: 551 rampo score

B46: SEQ ID NO 438 (peptide)
peptide: KKLDTFFVKLSKFTER
RAMPO Score: 355 rampo score

B47: SEQ ID NO 405 (peptide)
peptide: KPLDTFFVKLSLFTER
RAMPO Score: 425 rampo score

B48: SEQ ID NO 422 (peptide)
peptide: KKLDTFFVKLSFFTER
RAMPO Score: 389 rampo score

B49: SEQ ID NO 381 (peptide)
peptide: KKLDTFFVKLSLFMER
RAMPO Score: 501 rampo score

B50: SEQ ID NO 376 (peptide)
peptide: KKLDTFFVKLSLFFER
RAMPO Score: 348 rampo score

B51: SEQ ID NO 389 (peptide)
peptide: KKLDTFFVKLSLFTEK
RAMPO Score: 291 rampo score

B52: SEQ ID NO 413 (peptide)
peptide: KKLTTFFVKLSLFTER
RAMPO Score: 405 rampo score
